Data as given in paper PMC12101266.
Where two headings read alike, the source gives them in different places.

Experiments:
casein [1] = molecular target: casein
casein [2] = molecular target: casein; remark: listed apart in the source

- Km of casein proteolysis (substrate–velocity curve, UV absorbance at 280 nm, casein 7–80 µM, 37 °C, 50 mM Tris pH 7.8) (casein [1]): 14.6 µM
- Km of casein proteolysis (substrate–velocity curve, UV absorbance at 280 nm, casein 7–80 µM, 37 °C, 50 mM Tris pH 7.8) (casein [2]): 14.1 µM/min
Substance: purified S. trilobatum serine protease (StSP) (enzyme)
